Some targets named below: FRMPD2_1, Q68DX3; MAGI2_5, Q86UL8; NHERF4_4, Q86UT5; MAGI2_3, Q86UL8; PICK1, Q9NRD5; LDB3, O75112; DLG4_1, P78352; HTRA2, O43464; FRMPD3, Q5JV73; GRIP2_6, Q9C0E4; PDLIM1, O00151.
Assay in all cases: holdup assay
Parameters in all cases: key: below the threshold = too weak to quantify, mostly under pKd 3.1 to 4

A further assay has as its target T1, FRMPD1, Q5SYB0.
T1 sequence (Q5SYB0 52-145, limits assumed, looked up): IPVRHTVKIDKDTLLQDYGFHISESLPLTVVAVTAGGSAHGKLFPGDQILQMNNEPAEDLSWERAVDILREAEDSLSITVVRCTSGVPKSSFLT

In the next assay the target is SCRIB_2, Q14160. The note with it: plain residues with an end cap or a label only (N-terminal biotin on a linker: ttds).
The target in another assay is T2, APBA1_1, Q02410.
T2 sequence (Q02410 651-752, limits assumed, looked up): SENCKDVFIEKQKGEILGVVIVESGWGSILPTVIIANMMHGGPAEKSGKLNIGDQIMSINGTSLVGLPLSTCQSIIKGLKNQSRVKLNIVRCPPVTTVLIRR
The conditions noted are these: plain residues with an end cap or a label only (N-terminal biotin on a linker: ttds).

For a further assay, the target named is T3, DLG3_2, Q92796.
T3 sequence (Q92796 221-321, limits assumed, looked up): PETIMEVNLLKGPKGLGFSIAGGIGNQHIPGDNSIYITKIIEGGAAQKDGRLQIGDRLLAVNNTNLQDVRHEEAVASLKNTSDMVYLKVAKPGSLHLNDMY
The note with it: plain residues with an end cap or a label only (N-terminal biotin on a linker: ttds).

The next assay deals with DLG1_1, Q12959. The note with it: plain residues with an end cap or a label only (N-terminal biotin on a linker: ttds).
The next assay concerns the target T4, GRIP1_3, Q9Y3R0.
T4 sequence (Q9Y3R0 247-346, limits assumed, looked up): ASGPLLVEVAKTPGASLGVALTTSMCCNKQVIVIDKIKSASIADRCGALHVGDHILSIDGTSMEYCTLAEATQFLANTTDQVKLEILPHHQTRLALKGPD
The note with it: plain residues with an end cap or a label only (N-terminal biotin on a linker: ttds).

The target in a further assay is T5, PARD3B_1, Q8TEW8.
T5 sequence (Q8TEW8 196-299, limits assumed, looked up): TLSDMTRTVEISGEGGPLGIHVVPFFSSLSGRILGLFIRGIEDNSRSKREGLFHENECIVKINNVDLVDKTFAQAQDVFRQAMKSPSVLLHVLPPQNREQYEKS

A further assay addresses T6, MPDZ_5, O75970.
T6 sequence (O75970 695-796, limits assumed, looked up): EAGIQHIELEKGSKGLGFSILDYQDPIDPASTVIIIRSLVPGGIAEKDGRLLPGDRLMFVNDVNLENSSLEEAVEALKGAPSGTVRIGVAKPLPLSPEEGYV
The note with it: plain residues with an end cap or a label only (N-terminal biotin on a linker: ttds).

The next assay deals with T7, NHERF3_3, Q5T2W1.
T7 sequence (Q5T2W1 238-333, limits assumed, looked up): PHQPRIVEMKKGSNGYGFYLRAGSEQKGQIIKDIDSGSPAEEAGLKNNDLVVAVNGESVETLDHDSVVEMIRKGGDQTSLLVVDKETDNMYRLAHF
The conditions noted are these: plain residues with an end cap or a label only (N-terminal biotin on a linker: ttds).

The target in another assay is T8, MPDZ_10, O75970.
T8 sequence (O75970 1624-1722, limits assumed, looked up): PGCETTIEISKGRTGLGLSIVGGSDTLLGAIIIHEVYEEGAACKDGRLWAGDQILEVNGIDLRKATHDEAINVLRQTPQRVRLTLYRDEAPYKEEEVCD
The note with it: plain residues with an end cap or a label only (N-terminal biotin on a linker: ttds).

A further assay concerns the target T9, LIN7A, O14910.
T9 sequence (O14910 103-200, limits assumed, looked up): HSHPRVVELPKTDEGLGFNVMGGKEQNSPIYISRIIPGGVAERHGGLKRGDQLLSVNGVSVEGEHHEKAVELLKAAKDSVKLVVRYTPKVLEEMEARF

The next assay has as its target NHERF4_1, Q86UT5-2. The conditions noted are these: plain residues with an end cap or a label only (N-terminal biotin on a linker: ttds).
The next assay addresses T10, SNTG1, Q9NSN8.
T10 sequence (Q9NSN8 52-150, limits assumed, looked up): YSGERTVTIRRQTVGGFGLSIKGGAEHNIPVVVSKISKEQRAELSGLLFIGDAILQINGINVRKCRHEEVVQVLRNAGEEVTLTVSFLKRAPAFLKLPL
The note with it: plain residues with an end cap or a label only (N-terminal biotin on a linker: ttds).

The target in the next assay is GRID2IP_1, A4D2P6. The note with it: plain residues with an end cap or a label only (N-terminal biotin on a linker: ttds).
A further assay has as its target T11, GRIP1_5, Q9Y3R0.
T11 sequence (Q9Y3R0 568-668, limits assumed, looked up): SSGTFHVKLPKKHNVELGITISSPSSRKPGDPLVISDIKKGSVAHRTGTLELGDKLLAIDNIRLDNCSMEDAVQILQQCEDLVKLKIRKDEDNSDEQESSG

The next assay addresses LNX1_2, Q8TBB1. The conditions noted are these: plain residues with an end cap or a label only (N-terminal biotin on a linker: ttds).
The mark [1] stands for this setting: plain residues with an end cap or a label only (N-terminal biotin on a linker: ado-ado).
The mark [2] stands for this setting: plain residues with an end cap or a label only (N-terminal biotin on a linker: ttds).

Chain of GRIP2_6, Q9C0E4 (Q9C0E4 648-740): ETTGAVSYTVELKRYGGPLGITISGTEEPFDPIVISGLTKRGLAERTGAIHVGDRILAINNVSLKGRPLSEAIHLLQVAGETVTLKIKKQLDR
Chain of MAGI2_5, Q86UL8 (Q86UL8 915-1017): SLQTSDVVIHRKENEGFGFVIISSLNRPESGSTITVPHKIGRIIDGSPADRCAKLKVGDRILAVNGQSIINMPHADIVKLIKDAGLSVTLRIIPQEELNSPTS
Chain of DLG4_1, P78352 (P78352 62-152): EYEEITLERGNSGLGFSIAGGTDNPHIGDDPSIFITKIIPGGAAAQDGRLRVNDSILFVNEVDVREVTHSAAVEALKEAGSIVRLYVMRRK
Chain of HTRA2, O43464 (O43464 355-458): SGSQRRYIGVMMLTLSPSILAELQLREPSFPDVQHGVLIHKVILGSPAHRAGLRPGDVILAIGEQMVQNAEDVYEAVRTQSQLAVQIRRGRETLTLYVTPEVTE
Chain of PDLIM1, O00151 (O00151 1-87): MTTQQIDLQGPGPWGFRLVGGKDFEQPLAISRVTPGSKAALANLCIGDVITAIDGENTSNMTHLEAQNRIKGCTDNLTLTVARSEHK
Chain of PICK1, Q9NRD5 (Q9NRD5 17-115): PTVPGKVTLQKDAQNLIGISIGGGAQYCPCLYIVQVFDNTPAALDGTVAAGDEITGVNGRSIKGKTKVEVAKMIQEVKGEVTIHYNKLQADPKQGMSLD
Chain of FRMPD3, Q5JV73 (Q5JV73 12-100): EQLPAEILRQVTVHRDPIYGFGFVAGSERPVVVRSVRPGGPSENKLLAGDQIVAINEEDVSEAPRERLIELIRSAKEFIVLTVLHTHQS
Chain of NHERF4_4, Q86UT5 (Q86UT5 464-550): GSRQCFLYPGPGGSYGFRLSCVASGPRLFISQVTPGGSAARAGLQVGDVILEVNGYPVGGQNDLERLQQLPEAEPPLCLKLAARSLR
Chain of LNX1_2, Q8TBB1 (Q8TBB1 371-470): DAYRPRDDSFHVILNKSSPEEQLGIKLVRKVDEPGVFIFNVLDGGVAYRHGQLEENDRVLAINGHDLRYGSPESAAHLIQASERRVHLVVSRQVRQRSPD
Chain of GRID2IP_1, A4D2P6 (A4D2P6 1-87): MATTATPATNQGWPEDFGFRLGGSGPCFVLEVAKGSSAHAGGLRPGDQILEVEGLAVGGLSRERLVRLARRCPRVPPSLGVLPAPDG
Chain of SCRIB_2, Q14160 (Q14160 857-960): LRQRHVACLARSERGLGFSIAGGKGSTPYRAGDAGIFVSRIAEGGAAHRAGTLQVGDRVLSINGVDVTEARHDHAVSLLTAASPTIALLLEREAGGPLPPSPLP
Chain of LDB3, O75112 (O75112 1-94): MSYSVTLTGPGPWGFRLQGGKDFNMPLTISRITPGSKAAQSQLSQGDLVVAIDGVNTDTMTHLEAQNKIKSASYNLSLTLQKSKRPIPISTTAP
Chain of NHERF4_1, Q86UT5-2 (Q86UT5 other isoform, or with tags, fused parts or gaps): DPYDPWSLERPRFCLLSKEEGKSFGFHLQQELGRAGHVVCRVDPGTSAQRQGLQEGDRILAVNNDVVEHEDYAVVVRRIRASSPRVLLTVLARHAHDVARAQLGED
Chain of MAGI2_3, Q86UL8 (Q86UL8 600-682): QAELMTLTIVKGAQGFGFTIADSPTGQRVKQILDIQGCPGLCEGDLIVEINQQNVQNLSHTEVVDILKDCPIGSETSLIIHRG
Chain of FRMPD2_1, Q68DX3 (Q68DX3 770-861): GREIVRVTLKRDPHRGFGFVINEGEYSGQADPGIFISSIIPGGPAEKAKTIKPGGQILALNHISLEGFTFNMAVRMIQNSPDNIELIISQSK

B1: MUC3B, MUC3A, Q02505;Q9H195 (peptide)
chain: KRPEMTSSSV
Usually pKd stands for the Kd on a negative log10 scale, so that one unit is a factor of ten. In the case of B1, the pKd result with FRMPD2_1, Q68DX3 (setting [1]) is “below the threshold”; with FRMPD1, Q5SYB0 (setting [1]) it was “below the threshold”; in the assay with MAGI2_5, Q86UL8 (setting [1]), 3.82; in the assay with NHERF4_4, Q86UT5 (setting [1]), “below the threshold”; in the assay with MAGI2_3, Q86UL8 (setting [1]) it was “below the threshold”; with PICK1, Q9NRD5 (setting [1]) it was 2.09.

B2: HPV16-E6, P03126 (peptide)
chain: SSRTRRETQL
As for B2, the pKd with SCRIB_2, Q14160 is 4.21; in the assay with APBA1_1, Q02410 it was “below the threshold”; with LDB3, O75112 (setting [2]), “below the threshold”; in the assay with DLG3_2, Q92796 it was 4.8; with DLG1_1, Q12959, 4.67; with FRMPD2_1, Q68DX3 (setting [2]) it was 4.12. For the same molecule, the pKd result with GRIP1_3, Q9Y3R0 was “below the threshold”; in the assay with PARD3B_1, Q8TEW8 (setting [2]) it was “below the threshold”; with MPDZ_5, O75970 it was 3.67; in the assay with DLG4_1, P78352 (setting [2]), 4.73; with HTRA2, O43464 (setting [2]), “below the threshold”; with NHERF3_3, Q5T2W1 it was 3.72. Also, the pKd entry with FRMPD1, Q5SYB0 (setting [2]) is “below the threshold”; with MPDZ_10, O75970, 3.68; with LIN7A, O14910 (setting [2]), “below the threshold”; with MAGI2_5, Q86UL8 (setting [2]) it was 3.93; in the assay with FRMPD3, Q5JV73 (setting [2]), “below the threshold”; in the assay with NHERF4_4, Q86UT5 (setting [2]) it was 3.61. The pKd result was “below the threshold” in the assay with GRIP2_6, Q9C0E4 (setting [2]); 4.25 with NHERF4_1, Q86UT5-2; 3.8 with SNTG1, Q9NSN8; 3.67 in the assay with MAGI2_3, Q86UL8 (setting [2]); “below the threshold” with PICK1, Q9NRD5 (setting [2]); “below the threshold” in the assay with GRID2IP_1, A4D2P6. For the same molecule, the pKd entry with GRIP1_5, Q9Y3R0 (setting [2]) is “below the threshold”; with LNX1_2, Q8TBB1, 3.47.

B3: CYSLTR2, Q9NS75 (peptide)
chain: SVWLRKETRV
Turning to B3, the pKd was 4.42 with SCRIB_2, Q14160; “below the threshold” in the assay with APBA1_1, Q02410; “below the threshold” in the assay with LDB3, O75112 (setting [2]); 5.32 with DLG3_2, Q92796; 5.14 with DLG1_1, Q12959; 4.15 in the assay with FRMPD2_1, Q68DX3 (setting [2]). Moreover, the pKd result with GRIP1_3, Q9Y3R0 was “below the threshold”; with PARD3B_1, Q8TEW8 (setting [2]), “below the threshold”; in the assay with MPDZ_5, O75970, 3.36; with DLG4_1, P78352 (setting [2]), 4.92; with HTRA2, O43464 (setting [2]) it was 3.5; with NHERF3_3, Q5T2W1, 3.52. Also, the pKd result with FRMPD1, Q5SYB0 (setting [2]) was “below the threshold”; with MPDZ_10, O75970, 3.92; with LIN7A, O14910 (setting [2]), 4.17; with MAGI2_5, Q86UL8 (setting [2]), 3.93; with FRMPD3, Q5JV73 (setting [2]), “below the threshold”; with NHERF4_4, Q86UT5 (setting [2]), “below the threshold”. Besides, the pKd entry is “below the threshold” with GRIP2_6, Q9C0E4 (setting [2]); “below the threshold” with PDLIM1, O00151 (setting [2]); “below the threshold” with NHERF4_1, Q86UT5-2; 4.43 with SNTG1, Q9NSN8; 4.73 with MAGI2_3, Q86UL8 (setting [2]); 3.42 with PICK1, Q9NRD5 (setting [2]). Also, the pKd result with GRID2IP_1, A4D2P6 is “below the threshold”; with GRIP1_5, Q9Y3R0 (setting [2]), “below the threshold”; with LNX1_2, Q8TBB1, 3.4.

B4: GRASP, Q7Z6J2 (peptide)
chain: RSLEEEESQL
For the molecule B4, the pKd is 3.87 with SCRIB_2, Q14160; “below the threshold” with APBA1_1, Q02410; 3.68 in the assay with LDB3, O75112 (setting [2]); 3.63 with DLG3_2, Q92796; “below the threshold” in the assay with DLG1_1, Q12959; “below the threshold” with FRMPD2_1, Q68DX3 (setting [2]). The pKd entry in the assay with GRIP1_3, Q9Y3R0 is “below the threshold”; in the assay with PARD3B_1, Q8TEW8 (setting [2]), 4.28; in the assay with MPDZ_5, O75970, 3.53; with DLG4_1, P78352 (setting [2]) it was 3.63; in the assay with HTRA2, O43464 (setting [2]), 3.69; with NHERF3_3, Q5T2W1, “below the threshold”. The pKd in the assay with FRMPD1, Q5SYB0 (setting [2]) is 3.71; with MPDZ_10, O75970, “below the threshold”; in the assay with LIN7A, O14910 (setting [2]), 3.56; with MAGI2_5, Q86UL8 (setting [2]), 4.42; in the assay with FRMPD3, Q5JV73 (setting [2]), 3.63; in the assay with NHERF4_4, Q86UT5 (setting [2]), “below the threshold”. The pKd turned out to be 3.64 with GRIP2_6, Q9C0E4 (setting [2]); 3.85 with PDLIM1, O00151 (setting [2]); 3.9 with NHERF4_1, Q86UT5-2; 3.86 with SNTG1, Q9NSN8; 3.65 with MAGI2_3, Q86UL8 (setting [2]); 3.59 with PICK1, Q9NRD5 (setting [2]). Besides, the pKd entry was “below the threshold” with GRID2IP_1, A4D2P6; 3.87 with GRIP1_5, Q9Y3R0 (setting [2]); 3.56 with LNX1_2, Q8TBB1.

B5: NF2, P35240 (peptide)
chain: KSRVAFFEEL
Turning to B5, the pKd in the assay with LDB3, O75112 (setting [1]) was 3.9; with PARD3B_1, Q8TEW8 (setting [1]), 3.83; with DLG4_1, P78352 (setting [1]), 3.63; with HTRA2, O43464 (setting [1]) it was 3.61; in the assay with LIN7A, O14910 (setting [1]), 3.51; in the assay with FRMPD3, Q5JV73 (setting [1]) it was 3.5. The pKd with GRIP2_6, Q9C0E4 (setting [1]) came out at 3.77; in the assay with PDLIM1, O00151 (setting [1]) it was 3.76; with MAGI2_3, Q86UL8 (setting [1]), 3.55; in the assay with GRIP1_5, Q9Y3R0 (setting [1]), 3.62.

These data come from PMC9482650, “Quantitative fragmentomics allow affinity mapping of interactomes” (Nature Communications, 2022).
